# Patent publication US20230257470A1 (published 2023)
# Positions count from the first letter of the chain named. Numbers in names are those of the source.
# T1: human FcγRIIa(R) (allotype R131) (human, UniProt P12318 36-217)
# T1 construct: Soluble analyte in SPR; also called hFcgRIIa(R); FcgRIIaR
# T1 chain: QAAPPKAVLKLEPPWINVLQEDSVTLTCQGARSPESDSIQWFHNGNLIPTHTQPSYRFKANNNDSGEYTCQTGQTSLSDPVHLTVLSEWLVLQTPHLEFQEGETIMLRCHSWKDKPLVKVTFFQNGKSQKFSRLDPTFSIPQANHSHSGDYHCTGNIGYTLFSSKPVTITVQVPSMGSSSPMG
# T2: human FcγRIIa(H) (allotype H131) (human, UniProt P12318 36-217)
# T2 construct: Soluble analyte in SPR; also called hFcgRIIa(H); FcgRIIaH
# T2 sequence: T1 chain with R133H
# T3: human FcγRIIb (human, UniProt P31994 43-217, limits assumed)
# T3 construct: Soluble analyte in SPR; also called hFcgRIIb; FcgRIIb
# T3 sequence: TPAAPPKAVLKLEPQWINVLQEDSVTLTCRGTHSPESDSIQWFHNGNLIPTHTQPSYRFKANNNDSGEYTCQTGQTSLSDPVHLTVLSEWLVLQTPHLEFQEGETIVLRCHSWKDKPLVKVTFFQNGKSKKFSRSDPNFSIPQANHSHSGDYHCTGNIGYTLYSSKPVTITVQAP
# T4: human FcγRIIa type R (human, UniProt P12318 36-217)
# T4 construct: also called FcγRIIaR; FcγRIIa(R)
# T4 chain: T1 chain
# T5: human FcγRIIb (human, UniProt P31994 43-217, limits assumed)
# T5 construct: Whole entry (AAI46679.1); also called FcγIIB; FcgRIIb
# T5 sequence: T3 sequence
# B1: antibody containing VH3-IgG2-F890 for the heavy chain and L(WT)-CK for the light chain (antibody)
# heavy: QVQLQESGPGLVKPSETLSLTCAVSGHSISHDHAWSWVRQPPGEGLEWIGFISYSGITNYNPSLQGRVTISRDNSKNTLYLQMNSLRAEDTAVYYCARSLARTTAMDYWGEGTLVTVSSASTKGPSVFPLAPCSRSTSESTAALGCLVKDYFPEPVTVSWNSGALTSGVHTFPAVLQSSGLYSLSSVVTVPSSNFGTQTYTCNVDHKPSNTKVDKTVERKCCVECPPCPAPPVAGPSVFLFPPKPKDTLYISRTPEVTCVVVDVSHEDPEVQFNWYVDGVEVHNAKTKPREEQFNSTFRVVSVLTVVHQDWLNGKEYKCKVSNKGLPAPIEKTISKTKGQPREPQVYTLPPSREEMTKNQVSLTCLVKGFYPSDIAVEWESNGQPENNYKTTPPMLDSDGSFFLYSKLTVDKSRWQQGNVFSCSVMHEALHYHVTQKSLSLSP
# light: not shown
# notes: VH3-IgG2 with M252Y/N434Y/Y436V (EU numbering)
# B2: antibody containing VH3-IgG2 for the heavy chain and L(WT)-CK for the light chain (antibody)
# heavy: B1 heavy with Y250M, Y432N, V434Y
# light: not shown
# B3: antibody containing VH3-IgG2-F939 for the heavy chain and L(WT)-CK for the light chain (antibody)
# heavy: B1 heavy with A234R, S237K
# light: not shown
# notes: VH3-IgG2 with A235R/S239K/M252Y/N434Y/Y436V (EU numbering)
# B4: antibody containing VH3-IgG4-F890 for the heavy chain and L(WT)-CK for the light chain (antibody)
# heavy: QVQLQESGPGLVKPSETLSLTCAVSGHSISHDHAWSWVRQPPGEGLEWIGFISYSGITNYNPSLQGRVTISRDNSKNTLYLQMNSLRAEDTAVYYCARSLARTTAMDYWGEGTLVTVSSASTKGPSVFPLAPCSRSTSESTAALGCLVKDYFPEPVTVSWNSGALTSGVHTFPAVLQSSGLYSLSSVVTVPSSSLGTKTYTCNVDHKPSNTKVDKRVESKYGPPCPPCPAPEFLGGPSVFLFPPKPKDTLYISRTPEVTCVVVDVSQEDPEVQFNWYVDGVEVHNAKTKPREEQFNSTYRVVSVLTVLHQDWLNGKEYKCKVSNKGLPSSIEKTISKAKGQPREPQVYTLPPSQEEMTKNQVSLTCLVKGFYPSDIAVEWESNGQPENNYKTTPPVLDSDGSFFLYSRLTVDKSRWQEGNVFSCSVMHEALHYHVTQKSLSLSL
# light: not shown
# notes: VH3-IgG4 with M252Y/N434Y/Y436V (EU numbering)
# B5: antibody containing VH3-IgG4-F939 for the heavy chain and L(WT)-CK for the light chain (antibody)
# heavy: B4 heavy with L234R, S238K
# light: not shown
# notes: VH3-IgG4 with L235R/S239K/M252Y/N434Y/Y436V (EU numbering)
# B6: IgG1-v1 (antibody containing IL6R-G1d_v1 as H chain and IL6R-L as L chain) (antibody)
# heavy: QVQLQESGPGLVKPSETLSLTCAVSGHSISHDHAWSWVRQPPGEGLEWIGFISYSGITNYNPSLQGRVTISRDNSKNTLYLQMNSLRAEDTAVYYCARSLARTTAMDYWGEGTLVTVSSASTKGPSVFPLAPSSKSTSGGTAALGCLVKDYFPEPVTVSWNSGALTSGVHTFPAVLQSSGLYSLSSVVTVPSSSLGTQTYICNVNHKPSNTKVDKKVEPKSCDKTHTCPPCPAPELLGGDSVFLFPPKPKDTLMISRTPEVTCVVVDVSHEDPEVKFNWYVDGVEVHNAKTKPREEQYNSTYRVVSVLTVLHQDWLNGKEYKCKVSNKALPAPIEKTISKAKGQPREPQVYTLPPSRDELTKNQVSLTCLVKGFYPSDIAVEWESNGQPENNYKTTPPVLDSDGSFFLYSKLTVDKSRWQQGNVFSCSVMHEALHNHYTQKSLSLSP
# light: DIQMTQSPSSLSASVGDRVTITCRASQDISSYLNWYQQKPGKAPKLLIYYTSRLHSGVPSRFSGSGSGTDFTFTISSLQPEDIATYYCQQGNTLPYTFGQGTKVEIK
# notes: IL6R-G1d with P238D (EU numbering); also called P238D
# B7: IgG1-v3 (antibody containing IL6R-G1d_v3 as H chain and IL6R-L as L chain) (antibody)
# heavy: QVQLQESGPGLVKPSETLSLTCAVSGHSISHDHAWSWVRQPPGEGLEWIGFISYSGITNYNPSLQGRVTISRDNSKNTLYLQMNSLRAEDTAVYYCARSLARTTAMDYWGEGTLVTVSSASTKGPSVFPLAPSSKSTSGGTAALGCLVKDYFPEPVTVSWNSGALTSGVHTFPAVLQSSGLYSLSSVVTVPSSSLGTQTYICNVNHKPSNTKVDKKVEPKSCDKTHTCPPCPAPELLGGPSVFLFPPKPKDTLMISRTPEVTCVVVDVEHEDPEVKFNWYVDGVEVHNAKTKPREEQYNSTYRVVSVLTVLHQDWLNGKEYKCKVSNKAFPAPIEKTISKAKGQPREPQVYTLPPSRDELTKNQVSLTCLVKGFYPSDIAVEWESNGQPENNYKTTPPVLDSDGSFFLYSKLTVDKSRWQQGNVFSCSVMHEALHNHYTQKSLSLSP
# light: B6 light
# notes: IL6R-G1d with S267E/L328F (EU numbering); also called S267E/L328F
# B8: IgG1-v2 (antibody containing IL6R-G1d_v2 as H chain and IL6R-L as L chain) (antibody)
# heavy: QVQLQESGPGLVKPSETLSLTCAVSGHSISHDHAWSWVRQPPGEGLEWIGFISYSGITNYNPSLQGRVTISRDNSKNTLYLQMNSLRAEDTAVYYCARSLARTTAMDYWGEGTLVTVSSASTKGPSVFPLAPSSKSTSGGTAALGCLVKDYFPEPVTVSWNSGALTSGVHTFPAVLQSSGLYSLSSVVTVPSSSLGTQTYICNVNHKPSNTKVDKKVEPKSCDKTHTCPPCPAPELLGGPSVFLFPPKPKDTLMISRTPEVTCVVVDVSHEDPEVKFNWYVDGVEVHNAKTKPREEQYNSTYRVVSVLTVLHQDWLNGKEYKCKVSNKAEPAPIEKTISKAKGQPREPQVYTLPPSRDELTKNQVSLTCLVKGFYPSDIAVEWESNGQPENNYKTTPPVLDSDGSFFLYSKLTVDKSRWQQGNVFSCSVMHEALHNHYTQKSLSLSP
# light: B6 light
# notes: IL6R-G1d with L328E (EU numbering); also called L328E
# B9: GpH7-B3 N325F/GpL16-k0 (antibody, human IgG1)
# heavy: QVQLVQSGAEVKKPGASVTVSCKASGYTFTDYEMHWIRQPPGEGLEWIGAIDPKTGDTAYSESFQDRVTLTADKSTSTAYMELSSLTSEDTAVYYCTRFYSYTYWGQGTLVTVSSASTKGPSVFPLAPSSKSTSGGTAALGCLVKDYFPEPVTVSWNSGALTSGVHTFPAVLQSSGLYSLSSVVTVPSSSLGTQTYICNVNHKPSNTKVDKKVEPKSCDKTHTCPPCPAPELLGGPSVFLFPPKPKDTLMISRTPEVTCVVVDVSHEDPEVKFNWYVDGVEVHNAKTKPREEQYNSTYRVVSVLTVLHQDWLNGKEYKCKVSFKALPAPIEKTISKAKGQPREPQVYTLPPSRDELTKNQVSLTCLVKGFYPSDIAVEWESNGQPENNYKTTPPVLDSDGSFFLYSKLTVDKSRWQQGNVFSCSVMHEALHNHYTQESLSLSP
# light: DIVMTQSPLSLPVTPGEPASISCQASESLVHSNRNTYLHWYLQKPGQSPQLLIYKVSNRFSGVPDRFSGSGSGTDFTLKISRVEAEDVGVYYCSQNTHVPPTFGQGTKVEIE
# notes: Anti-glypican-3 human IgG1 with B3 constant region (G1d with K439E); also called B3 variant; copies: 2 + 2
# B10: GpH7-B3 Y300R/GpL16-k0 (antibody, human IgG1)
# heavy: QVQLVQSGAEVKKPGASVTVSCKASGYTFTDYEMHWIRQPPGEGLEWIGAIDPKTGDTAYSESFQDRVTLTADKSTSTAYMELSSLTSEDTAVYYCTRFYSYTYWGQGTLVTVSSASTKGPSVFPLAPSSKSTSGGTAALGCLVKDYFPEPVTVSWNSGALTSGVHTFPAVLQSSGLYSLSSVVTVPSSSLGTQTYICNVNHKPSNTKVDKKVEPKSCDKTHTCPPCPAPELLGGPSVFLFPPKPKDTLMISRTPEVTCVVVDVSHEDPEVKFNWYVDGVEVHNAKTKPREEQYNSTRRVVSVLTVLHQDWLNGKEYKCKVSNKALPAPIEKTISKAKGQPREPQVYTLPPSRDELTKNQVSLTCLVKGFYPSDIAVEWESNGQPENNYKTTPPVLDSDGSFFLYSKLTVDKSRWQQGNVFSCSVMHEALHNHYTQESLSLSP
# light: B9 light
# notes: as for B9
# B11: IL6R-B3/IL6R-L (antibody, human IgG1)
# heavy: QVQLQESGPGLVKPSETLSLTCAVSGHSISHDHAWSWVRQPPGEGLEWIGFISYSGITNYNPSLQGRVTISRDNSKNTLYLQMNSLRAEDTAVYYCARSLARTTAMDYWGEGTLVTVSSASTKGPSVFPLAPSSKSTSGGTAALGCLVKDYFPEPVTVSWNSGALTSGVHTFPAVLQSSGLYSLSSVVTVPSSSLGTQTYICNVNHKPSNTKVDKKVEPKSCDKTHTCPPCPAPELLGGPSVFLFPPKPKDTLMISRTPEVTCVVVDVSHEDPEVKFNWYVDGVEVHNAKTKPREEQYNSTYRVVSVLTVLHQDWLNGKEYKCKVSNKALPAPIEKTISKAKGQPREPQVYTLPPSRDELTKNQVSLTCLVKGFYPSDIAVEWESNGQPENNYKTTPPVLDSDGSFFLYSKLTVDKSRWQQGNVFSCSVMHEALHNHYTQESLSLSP
# light: B6 light
# notes: IL6R-G1d with K439E (EU numbering); also called parent polypeptide
# B12: IL6R-BP087/IL6R-L (antibody, human IgG1, name in EU numbering)
# heavy: QVQLQESGPGLVKPSETLSLTCAVSGHSISHDHAWSWVRQPPGEGLEWIGFISYSGITNYNPSLQGRVTISRDNSKNTLYLQMNSLRAEDTAVYYCARSLARTTAMDYWGEGTLVTVSSASTKGPSVFPLAPSSKSTSGGTAALGCLVKDYFPEPVTVSWNSGALTSGVHTFPAVLQSSGLYSLSSVVTVPSSSLGTQTYICNVNHKPSNTKVDKKVEPKSCDKTHTCPPCPAPEYLGGDSVFLFPPKPKDTLMISRTPEVTCVVVDVSHEDPEVKFNWYVDGVEVHNAKTKPREEQYNSTYRVVSVLTVLHQDWLNGKEYKCKVSNKALPKPIEKTISKAKGQPREPQVYTLPPSRDELTKNQVSLTCLVKGFYPSDIAVEWESNGQPENNYKTTPPVLDSDGSFFLYSKLTVDKSRWQQGNVFSCSVMHEALHNHYTQESLSLSP
# light: B6 light
# notes: Alterations introduced into IL6R-B3 (EU numbering)
# B13: IL6R-BP180/IL6R-L (antibody, human IgG1, name in EU numbering)
# heavy: B12 heavy with Y236L, G239D, P273G
# light: B6 light
# notes: as for B12
# B14: IL6R-BP179/IL6R-L (antibody, human IgG1, name in EU numbering)
# heavy: B12 heavy with Y236L, G239D, P273G, K328A
# light: B6 light
# notes: as for B12
# B15: IL6R-BP151/IL6R-L (antibody, human IgG1, name in EU numbering)
# heavy: B12 heavy with E235D, G239D, K328A, K332R
# light: B6 light
# notes: as for B12
# B16: IL6R-BP089/IL6R-L (antibody, human IgG1, name in EU numbering)
# heavy: B12 heavy with K328A
# light: B6 light
# notes: as for B12
# Molecular target: T1, human FcγRIIa(R) (allotype R131)
# Experiment: SPR (Biacore), antibody captured by Protein L, FcγR as analyte, pH 7.4, 25 C;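 further: Buffer-blank-subtracted FcγR response, normalized to the captured antibody level and scaled to 1500 RU of captured antibody, CM4 chip, ACES-NaCl running buffer with polysorbate 20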
# Method: (§1) Binding activity between the antibodies and human FcγRIa, FcγRIIa(H), FcγRIIa(R), FcγRIIb and FcγRIIIa(F) (hereinafter referred to as human FcγRs) was evaluated using the BIACORE™ T100 or T200 surface plasmon resonance system (GE Healthcare). The antibodies being tested were captured by Protein L (ACTIGEN® protein (Alltech)) that was immobilized in suitable amounts on the CM4 Sensor Chip (GE Healthcare) by amine coupling. Next, the diluted human FcγRs and a running buffer used as a blank were injected to allow interaction with the antibodies captured on the sensor chip. A buffer consisting of 20 mmol/L N-(2-acetamido)-2-aminoethanesulfonic acid (ACES), 150 mmol/L NaCl and 0.05% (w/v) polysorbate 20 (Tween 20®) (pH 7.4) was used for the running buffer, and this buffer was also used to dilute the human FcγRs. 10 mmol/L glycine-HCl (pH 1.5) was used to regenerate the sensor chip. All measurements were carried out at 25° C.
# (§2) Binding activity to human FcγRs can be represented by the relative binding activity to human FcγRs. Antibody was captured by Protein L, and the amount of change in a sensorgram before and after the antibody was captured was defined as X1. Next, human FcγRs were allowed to interact with the antibody, and the value obtained by subtracting binding activity of human FcγRs represented as the amount of change in a sensorgram before and after allowing the running buffer to interact with antibody captured by Protein L (ΔA2) from the value obtained by multiplying by 1500 the value obtained by dividing the binding activity of human FcγRs represented as the amount of change in a sensorgram before and after that interaction (ΔA1) by the captured amount (X) of each antibody, was divided by the captured amount of each antibody (X) followed by multiplying by 1500 to obtain the binding activity of the human FcγRs (Y) (Equation 2).
row,Binder,BINDING AMOUNT (RU)
1,B1,120
2,B2,188
3,B3,1
4,B4,92.8
5,B5,-0.2

# Molecular target: T2, human FcγRIIa(H) (allotype H131)
# Experiment: as above
# Method: as §1, §2
row,Binder,BINDING AMOUNT (RU)
1,B1,204
2,B2,266
3,B3,1
4,B4,37.5
5,B5,-0.7

# Molecular target: T3, human FcγRIIb
# Experiment: as above
# Method: as §1, §2
row,Binder,BINDING AMOUNT (RU)
1,B1,31.9
2,B2,55.5
3,B3,0.4
4,B4,71.8
5,B5,0.4

# Molecular target: T6, human FcγRIIIa(F) (allotype F158) (human, UniProt P08637 17-208, limits assumed)
# T6 construct: also called hFcgRIIIa(F); FcgRIIIaF
# T6 sequence (P08637 other isoform, or with tags, fused parts or gaps limits assumed): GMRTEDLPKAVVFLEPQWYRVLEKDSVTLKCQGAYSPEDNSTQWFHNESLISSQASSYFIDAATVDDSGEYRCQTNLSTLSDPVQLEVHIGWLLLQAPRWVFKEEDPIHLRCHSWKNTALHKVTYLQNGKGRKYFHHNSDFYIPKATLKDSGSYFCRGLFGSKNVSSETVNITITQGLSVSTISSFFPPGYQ
# Experiment: as above
# Method: as §1, §2
row,Binder,BINDING AMOUNT (RU)
1,B1,9.3
2,B2,16.3
3,B3,0.6
4,B4,3.4
5,B5,-1.7

# Molecular target: T7, human FcγRIa (human, UniProt P12314 16-292, limits assumed)
# T7 construct: Soluble analyte in SPR; also called hFcgRIa; FcgRIa
# T7 sequence (P12314 16-292 limits assumed): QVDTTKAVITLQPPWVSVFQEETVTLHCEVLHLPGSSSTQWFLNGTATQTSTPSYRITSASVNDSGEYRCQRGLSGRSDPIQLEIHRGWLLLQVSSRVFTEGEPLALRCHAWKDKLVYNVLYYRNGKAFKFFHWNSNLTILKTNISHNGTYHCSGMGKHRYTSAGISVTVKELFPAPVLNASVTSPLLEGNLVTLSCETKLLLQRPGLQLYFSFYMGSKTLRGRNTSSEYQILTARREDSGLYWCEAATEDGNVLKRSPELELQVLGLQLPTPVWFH
# Experiment: as above
# Method: as §1, §2
row,Binder,BINDING AMOUNT (RU)
1,B1,19.7
2,B2,38.6
3,B3,1.3
4,B4,367
5,B5,1.2

# Molecular target: T8, human FcγRIIIa(V) (allotype V158) (human, UniProt P08637 17-208, limits assumed)
# T8 construct: also called hFcgRIIIa(V)
# T8 sequence (P08637 other isoform, or with tags, fused parts or gaps limits assumed): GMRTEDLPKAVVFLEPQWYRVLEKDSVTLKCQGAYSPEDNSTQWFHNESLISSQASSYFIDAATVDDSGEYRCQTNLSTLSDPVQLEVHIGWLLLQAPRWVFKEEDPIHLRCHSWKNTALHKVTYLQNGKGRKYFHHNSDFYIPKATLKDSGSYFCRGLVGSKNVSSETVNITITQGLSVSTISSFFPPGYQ
# Experiment: as above
# Method: as §1, §2
row,Binder,BINDING AMOUNT (RU)
1,B1,28.1
2,B2,50.1
3,B3,1.1
4,B4,15.5
5,B5,-0.5

# Molecular target: T1, human FcγRIIa(R) (allotype R131)
# Experiment: SPR (Biacore T100), ratio of the KD values of Table 24
# Method: (§3) Next, interaction between these antibodies and FcγR was analyzed kinetically using the BIACORE™ T100 (GE Healthcare). The interaction was measured at a temperature of 25° C. using HBS-EP+ (GE Healthcare) for the running buffer. The Series S Sensor Chip CM5 (GE Healthcare) was used after immobilizing Protein A by amine coupling. […] Antibody captured on the chip was washed by allowing 10 mM glycine-HCl (pH 1.5) to react following measurement. The chip regenerated in this manner was used repeatedly. The dissociation constant KD (mol/L) was calculated from the association rate constant ka (L/mol/s) and dissociation rate constant kd (1/s) as calculated by global-fitting the measurement results with a 1:1 Langmuir binding model using the BIACORE™ Evaluation Software.
row,Binder,relative KD (KD of IgG1 / KD of the variant) [fold]
1,B6,0.1
2,B7,522
3,B8,0.41

# Molecular target: T2, human FcγRIIa(H) (allotype H131)
# Experiment: as above
# Method: as §3
row,Binder,relative KD (KD of IgG1 / KD of the variant) [fold]
1,B6,0.014
2,B7,0.51
3,B8,0.064

# Molecular target: T3, human FcγRIIb
# Experiment: as above
# Method: as §3
row,Binder,relative KD (KD of IgG1 / KD of the variant) [fold]
1,B6,4.8
2,B7,408
3,B8,2.3

# Molecular target: T7, human FcγRIa
# Experiment: as above
# Method: as §3
row,Binder,relative KD (KD of IgG1 / KD of the variant) [fold]
1,B6,0.047
2,B7,1.8
3,B8,0.74

# Molecular target: T9, human FcγRIIIa(F) (human, UniProt P08637 17-208, limits assumed)
# T9 construct: the assay used allotype F; also called FcgRIIIaF; FcγRIIIa allotype F158
# Experiment: SPR, antibody captured, FcγR as analyte, capture-corrected binding amount
# Method: Interaction between each modified antibody and Fcγ receptor prepared in the manner described above was analyzed using the BIACORE™ T100 surface plasmon resonance system (GE Healthcare), BIACORE™ T200 surface plasmon resonance system (GE Healthcare), BIACORE™ A100 surface plasmon resonance system or BIACORE™ 4000 surface plasmon resonance system. HBS-EP+(GE Healthcare) was used for the running buffer, and measurements were carried out at 25° C. The chips used were chips in which antigen peptides, Protein A (Thermo Scientific), Protein A/G (Thermo Scientific) or Protein L (ACTIGEN® protein (Alltech or BioVision) were immobilized on the Series S Sensor Chip CM5 (GE Healthcare) or Series S Sensor Chip CM4 (GE Healthcare) by amine coupling, or chips in which preliminarily biotinylated antigen peptides were allowed to interact and then immobilized on the Series S Sensor Chip SA (certified) (GE Healthcare). The target antibodies were captured on these sensor chips, Fcγ receptor diluted with the running buffer was allowed to interact, followed by measurement of the amount of bound antibody. The amounts bound were compared between antibodies. However, since the amount of Fcγ receptor bound depends on the amount of captured antibody, the values used for comparison were first corrected by dividing the amount of Fcγ receptor bound by the captured amount of each antibody. Through reaction with 10 mM glycine-HCl at pH 1.5, the sensor chips were regenerated by washing off antibody captured on the sensor chips and used repeatedly.
# Binding strength was evaluated according to the following method based on the results of analyzing the interaction with each FcγR. […] That value was then further multiplied by 100, and the resulting value was used as an indicator of relative binding activity to each FcγR.
row,Binder,relative binding activity
1,B9,1 % of GpH7-B3/GpL16-k0
2,B10,12 % of GpH7-B3/GpL16-k0

# Molecular target: T4, human FcγRIIa type R
# Experiment: SPR (Biacore), antibody captured on Protein A chip, FcγR as analyte, 25 C, method of Example 14
# Method: as §3
# (§4) Furthermore, KD(IIaR)/KD(IIb) and KD(IIaH)/KD(IIb) in the table respectively represent the value obtained by dividing the KD value of each variant for FcγRIIaR by the KD value of each variant for FcγRIIb, and the value obtained by dividing the KD value of each variant for FcγRIIaH by the KD value of each variant for FcγRIIb.
row,Binder,Kd [µM]
1,B11,11

# Molecular target: T5, human FcγRIIb
# Experiment: ratio of SPR KD values: KD for FcγRIIaR divided by KD for FcγRIIb
# Method: as §3, §4
row,Binder,KD(IIaR)/KD(IIb)
1,B12,15
2,B13,18.5
3,B14,15.7
4,B15,15.9
5,B16,15.5
